# No end group written: not given here.
# B1: delta-type opioid receptor (DOR) (receptor, UniProt P41143 1-372, looked up)
# chain: MEPAPSAGAELQPPLFANASDAYPSACPSAGANASGPPGARSASSLALAIAITALYSAVCAVGLLGNVLVMFGIVRYTKMKTATNIYIFNLALADALATSTLPFQSAKYLMETWPFGELLCKAVLSIDYYNMFTSIFTLTMMSVDRYIAVCHPVKALDFRTPAKAKLINICIWVLASGVGVPIMVMAVTRPRDGAVVCMLQFPSPSWYWDTVTKICVFLFAFVVPILIITVCYGLMLLRLRSVRLLSGSKEKDRSLRRITRMVLVVVGAFVVCWAPIHIFVIVWTLVDIDRRDPLVVAALHLCIALGYANSSLNPVLYAFLDENFKRCFRQLCRKPCGRPDPSSFSRAREATARERVTACTPSDGPGGGAAA
# notes: whole, on cells; C-terminally SmBiT-tagged in the NanoBiT assays; also called OPRD; DOP
# Key:
# [1] = target: T1, human atypical chemokine receptor 3 (ACKR3) (human, UniProt P25106 1-362); test: cell-based or functional assay
# T1 sequence (P25106 whole entry): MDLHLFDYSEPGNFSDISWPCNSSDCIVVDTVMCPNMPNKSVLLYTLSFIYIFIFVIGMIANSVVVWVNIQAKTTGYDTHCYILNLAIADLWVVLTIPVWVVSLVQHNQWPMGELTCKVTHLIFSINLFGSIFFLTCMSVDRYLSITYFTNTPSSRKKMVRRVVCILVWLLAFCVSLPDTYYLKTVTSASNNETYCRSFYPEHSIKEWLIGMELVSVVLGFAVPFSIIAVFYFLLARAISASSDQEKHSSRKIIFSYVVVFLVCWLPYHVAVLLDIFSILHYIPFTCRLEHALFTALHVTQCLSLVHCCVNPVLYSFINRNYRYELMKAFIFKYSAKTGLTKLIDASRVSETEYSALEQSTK
# [2] = target: B1; test: cell-based or functional assay
# [3] = target: mu-type opioid receptor (MOR) (UniProt P35372 1-400); test: cell-based or functional assay
# Chain of mu-type opioid receptor (MOR) (P35372 whole entry): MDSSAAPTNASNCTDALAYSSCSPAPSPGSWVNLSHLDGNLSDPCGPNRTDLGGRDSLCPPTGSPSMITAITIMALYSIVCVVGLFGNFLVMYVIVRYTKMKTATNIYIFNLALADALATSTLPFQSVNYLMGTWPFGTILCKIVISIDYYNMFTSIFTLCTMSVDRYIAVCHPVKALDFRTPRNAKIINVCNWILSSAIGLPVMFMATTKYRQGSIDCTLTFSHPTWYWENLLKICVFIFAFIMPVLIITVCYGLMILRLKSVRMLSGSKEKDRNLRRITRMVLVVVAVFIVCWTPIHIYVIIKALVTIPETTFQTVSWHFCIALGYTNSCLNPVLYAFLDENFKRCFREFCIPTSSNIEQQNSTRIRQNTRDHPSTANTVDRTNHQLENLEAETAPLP
# [4] = target: kappa-type opioid receptor (KOR) (UniProt P41145 1-380); test: cell-based or functional assay
# Chain of kappa-type opioid receptor (KOR) (P41145 whole entry): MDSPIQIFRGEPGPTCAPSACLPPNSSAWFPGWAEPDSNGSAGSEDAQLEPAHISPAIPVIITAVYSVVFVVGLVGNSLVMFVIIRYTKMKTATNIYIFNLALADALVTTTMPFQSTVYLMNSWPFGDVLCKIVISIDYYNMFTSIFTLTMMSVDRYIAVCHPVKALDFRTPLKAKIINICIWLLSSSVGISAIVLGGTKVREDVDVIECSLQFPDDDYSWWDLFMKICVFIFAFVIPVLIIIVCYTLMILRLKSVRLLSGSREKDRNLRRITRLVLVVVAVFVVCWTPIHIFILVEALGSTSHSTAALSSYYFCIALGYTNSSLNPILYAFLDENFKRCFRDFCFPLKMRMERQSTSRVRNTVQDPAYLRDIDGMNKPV
# [5] = target: T1, human atypical chemokine receptor 3 …; test: flow cytometry competition with 5 nM CXCL12-AF647 on U87-ACKR3 cells
# Excerpt: Dead cells were excluded using Zombie Green viability dye (BioLegend). […] Ligand binding was quantified by mean fluorescence intensity on a BD FACS Fortessa cytometer (BD Biosciences).
# [6] = target: T2, human β-arrestin-1 N-terminally fused to LgBiT (human, UniProt P49407 1-418); test: NanoBiT complementation in U87 cells (receptor-SmBiT, LgBiT-β-arrestin-1), induced by adrenorphin
# T2 construct: Co-expressed in U87 cells with SmBiT-tagged receptors; also called LgBiT-beta-arrestin-1; not shown: LgBiT (NanoBiT, Promega)
# T2 sequence (P49407 whole entry, the tested form may be a part): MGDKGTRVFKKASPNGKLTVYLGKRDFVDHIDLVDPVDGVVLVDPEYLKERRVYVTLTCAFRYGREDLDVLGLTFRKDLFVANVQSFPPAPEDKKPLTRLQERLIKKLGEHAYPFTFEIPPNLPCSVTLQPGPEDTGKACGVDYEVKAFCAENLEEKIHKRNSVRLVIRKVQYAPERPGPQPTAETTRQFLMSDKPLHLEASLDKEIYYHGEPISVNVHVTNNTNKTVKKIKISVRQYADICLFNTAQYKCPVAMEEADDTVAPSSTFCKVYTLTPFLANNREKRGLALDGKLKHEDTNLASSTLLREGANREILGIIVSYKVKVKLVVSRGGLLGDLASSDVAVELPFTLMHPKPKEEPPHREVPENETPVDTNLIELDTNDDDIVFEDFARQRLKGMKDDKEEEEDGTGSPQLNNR
# Description: 48 hours post-transfection cells were harvested, incubated 25 minutes at 37° C. with Nano-Glo Live Cell substrate diluted 200-fold and distributed into white 96-well plates (5×10⁴ cells per well). Ligand-induced, β-arrestin and mG recruitment to GPCRs was evaluated with a Mithras LB940 luminometer (Berthold Technologies) for 20 minutes. For concentration-response curves, the signal recorded with a saturating concentration of full agonist for each receptor was set as 100%.
# [7] = target: T3, C-X-C motif chemokine receptor 4 (CXCR4) (UniProt P61073 1-352); test: flow cytometry, labelled peptide on U87-CXCR4 cells
# T3 construct: whole, on cells; Stably expressed in U87 cells (U87-CXCR4); C-terminally SmBiT-tagged in the NanoBiT assays
# T3 sequence (P61073 whole entry): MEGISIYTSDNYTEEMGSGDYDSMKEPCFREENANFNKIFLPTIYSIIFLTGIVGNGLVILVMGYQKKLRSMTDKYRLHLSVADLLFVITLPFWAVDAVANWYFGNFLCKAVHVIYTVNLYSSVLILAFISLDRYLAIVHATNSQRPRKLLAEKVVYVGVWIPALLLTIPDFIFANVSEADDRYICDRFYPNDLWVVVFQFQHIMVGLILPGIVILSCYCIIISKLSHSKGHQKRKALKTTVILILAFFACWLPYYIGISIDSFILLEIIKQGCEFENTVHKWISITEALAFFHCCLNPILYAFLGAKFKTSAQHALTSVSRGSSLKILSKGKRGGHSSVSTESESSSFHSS
binder,measurement,setting,value
"H-FGGFMRRK-NH2 [LIH383, octapeptide FGGFMRRK (SEQ ID NO: 3; NH2-substituted at C-terminus)]","EC50, β-arrestin recruitment (NanoBiT)",[1],610 pM
FGGFMRRV-NH2 [adrenorphin Y1F variant (SEQ ID NO: 35; NH2-substituted at C-terminus)],"fold reduction of potency against WT adrenorphin, β-arrestin-1 recruitment",[2],> 100 fold
same,"fold reduction of potency against WT adrenorphin, β-arrestin-1 recruitment",[3],> 100 fold
same,"fold change of potency against WT adrenorphin, β-arrestin-1 recruitment",[1],10 fold
same,"fold reduction of potency against WT adrenorphin, β-arrestin-1 recruitment",[4],> 100 fold
GGFLRRIRPKLK-NH2 [dynorphin 2-13 (SEQ ID NO: 20; NH2-substituted at C-terminus)],binding result,[5],binds
GGFLRRIRPKLKWDNQ [dynorphin 2-17 (SEQ ID NO: 19)],binding result,[5],binds
B1,binding result,[6],binds
"FGGFMRRK (also: Cy5 label, site not given here, also called LIH383-Cy5; fluorescently labelled LIH383) [Cy-5-labelled LIH383]",binding result,[7],no binding

# From US20220236279A1 (LUXEMBOURG INSTITUTE OF HEALTH LIH, published 2022)
